Reference: PMC6162275

Molecular target: C-terminally truncated SthK 1-420
Test: high-speed atomic force microscopy (HS-AFM); SthK reconstituted in lipid bilayers (E. coli polar lipid extract, lipid-to-protein ratio 0.8 to 1.0 w:w) as 2D-crystals, adsorbed on mica; imaging buffer 20 mM HEPES pH 8.0, 100 mM KCl, 100 uM cAMP; the oligomer is seen in topographs of single channels

stoichiometry N: 4
Substance: C-terminally truncated SthK 1-420 (domain or fragment)
